Assay results published in FireProtDB (doi:10.1021/bi00128a004).
Values joined by “and” are separate entries in the source; they are usually repeats but may differ in a detail not shown here. Identical values can stand only once.

B1: Tissue-type plasminogen activator, P00750 (parent)
chain: MDAMKRGLCCVLLLCGAVFVSPSQEIHARFRRGARSYQVICRDEKTQMIYQQHQSWLRPVLRSNRVEYCWCNSGRAQCHSVPVKSCSEPRCFNGGTCQQALYFSDFVCQCPEGFAGKCCEIDTRATCYEDQGISYRGTWSTAESGAECTNWNSSALAQKPYSGRRPDAIRLGLGNHNYCRNPDRDSKPWCYVFKAGKYSSEFCSTPACSEGNSDCYFGNGSAYRGTHSLTESGASCLPWNSMILIGKVYTAQNPSAQALGLGKHNYCRNPDGDAKPWCHVLKNRRLTWEYCDVPSCSTCGLRQYSQPQFRIKGGLFADIASHPWQAAIFAKHRRSPGERFLCGGILISSCWILSAAHCFQERFPPHHLTVILGRTYRVVPGEEEQKFEVEKYIVHKEFDDDTYDNDIALLQLKSDSSRCAQESSVVRTVCLPPADLQLPDWTECELSGYGKHEALSPFYSERLKEAHVRLYPSSRCTSQHLLNRTVTDNMLCAGDTRSGGPQANLHDACQGDSGGPLVCLNDGRMTLVGIISWGLGCGQKDVPGVYTKVTNYLDWIRDNMRP

Variants of: B1
Settings: Homo sapiens; pH 8; Thermal; DSC; Tris - Oac/100mM NaOAc 50 mM; structure 1PML; whole UniProt chain shown

Variant	Tm	change of melting temperature, mutant - wild type (higher = more stable)
W288Y	81.6 °C	–
W288S	73.7 °C and 76.5 °C	-3.5 °C
W288L	71.7 °C and 73.9 °C	-3.7 °C
W288F	–	-1.7 °C
